In PMC3807708 one finds Kd data, which are given here for 1 substance.

Experiment [1] has as its target extracellular domain of human interferon-γ receptor 1 (IFN-γ-Rx), mutant H222R (human) (UniProt P15260). Kind of experiment: SPR; His-tagged receptor immobilised on Ni2+-coated HTG chip; IFN-γ-SC as analyte; PBST; 20 °C; preliminary data of temperature dependency.
Experiment [2] addresses extracellular domain of human interferon-γ receptor 1 (IFN-γ-Rx), mutant S95R (human) (UniProt P15260). The experiment is described as above.
The target of experiment [3] is extracellular domain of human interferon-γ receptor 1 (IFN-γ-Rx), mutant N96W (human) (UniProt P15260). The experiment is described as above.
The target of experiment [4] is extracellular domain of human interferon-γ receptor 1 (IFN-γ-Rx), wild type (human) (UniProt P15260). Described as above.
Experiment [5] addresses extracellular domain of human interferon-γ receptor 1 (IFN-γ-Rx), mutant N70G (human) (UniProt P15260). Described as above.
For experiment [6], the target named is extracellular domain of human interferon-γ receptor 1 (IFN-γ-Rx), mutant N96W (human) (UniProt P15260). Kind of experiment: SPR; His-tagged receptor immobilised on Ni2+-activated HTG chip (ProteOn XPR36); IFN-γ-SC as analyte, 1.2 to 99 nM; PBST (PBS pH 7.4, 0.005% Tween20); 25 °C; 1:1 Langmuir with drift; averages over four different batches of IFN-γ-SC. A general note: SPR reads the build-up and loss of mass on a sensor chip optically.

For experiment [7], the target named is extracellular domain of human interferon-γ receptor 1 (IFN-γ-Rx), wild type (human) (UniProt P15260). Described as above.
In experiment [8] the target is extracellular domain of human interferon-γ receptor 1 (IFN-γ-Rx), mutant N70G (human) (UniProt P15260). The experiment is described as above.

One may read the Kd as the free concentration of one partner at which half of the binding sites on the other are occupied at equilibrium, for simple one-to-one binding. A higher Kd goes with a looser complex. Regarding “single-chain form of human interferon-γ (IFN-γ-SC) (ligand)”, the Kd worked out at 19.4 nM in experiment [1]; 44.4 nM in experiment [2]; 5.28 nM in experiment [3]; 21.7 nM in experiment [4]; 17.3 nM in experiment [5]; 5.3 nM in experiment [6]. Also, the Kd in experiment [7] was 21 nM; in experiment [8], 19 nM.
